Laboratory results reported in article doi:10.1101/2022.05.24.493251.

T1: Npl3 RRM1 (Saccharomyces cerevisiae, UniProt Q01560 114-201)
T1 sequence: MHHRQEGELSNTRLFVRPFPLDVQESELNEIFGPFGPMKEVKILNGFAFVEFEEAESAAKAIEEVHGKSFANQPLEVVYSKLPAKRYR


Biological target: T1, Npl3 RRM1
Assay: NMR titration

Binder | binding result
AAAAAA (ssDNA) [polyA 6mer] | no binding
TTTTTT (ssDNA) [polyT 6mer] | no binding
GGGGGG (ssDNA) [polyG 6mer] | no binding
CCCCCC (ssDNA) [polyC 6mer] | binds
